The source of these data is IntAct's records for PubMed 31515488.

B1: 3-hydroxyanthranilate 3,4-dioxygenase (Homo sapiens), P46952 (parent)
chain: MERRLGVRAWVKENRGSFQPPVCNKLMHQEQLKVMFIGGPNTRKDYHIEEGEEVFYQLEGDMVLRVLEQGKHRDVVIRQGEIFLLPARVPHSPQRFANTVGLVVERRRLETELDGLRYYVGDTMDVLFEKWFYCKDLGTQLAPIIQEFFSSEQYRTGKPIPDQLLKEPPFPLSTRSIMEPMSLDAWLDSHHRELQAGTPLSLFGDTYETQVIAYGQGSSEGLRQNVDVWLWQLEGSSVVTMGGRRLSLAPDDSLLVLAGTSYAWERTQGSVALSVTQDPACKKPLG
partner: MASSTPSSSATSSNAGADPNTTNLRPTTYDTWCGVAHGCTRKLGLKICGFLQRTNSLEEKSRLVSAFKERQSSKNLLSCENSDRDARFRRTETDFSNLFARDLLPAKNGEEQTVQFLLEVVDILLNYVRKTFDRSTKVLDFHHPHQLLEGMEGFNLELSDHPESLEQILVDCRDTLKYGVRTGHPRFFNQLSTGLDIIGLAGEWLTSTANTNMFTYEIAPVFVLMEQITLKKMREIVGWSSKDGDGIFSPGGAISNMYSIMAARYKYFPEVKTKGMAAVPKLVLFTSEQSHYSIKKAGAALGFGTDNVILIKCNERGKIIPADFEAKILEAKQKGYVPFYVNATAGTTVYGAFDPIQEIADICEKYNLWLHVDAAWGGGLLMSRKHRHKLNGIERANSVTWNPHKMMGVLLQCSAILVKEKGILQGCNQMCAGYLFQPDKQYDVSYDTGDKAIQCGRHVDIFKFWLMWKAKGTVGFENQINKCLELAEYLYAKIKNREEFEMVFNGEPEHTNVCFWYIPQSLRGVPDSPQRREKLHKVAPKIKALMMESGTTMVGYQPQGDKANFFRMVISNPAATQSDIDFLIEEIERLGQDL
B2: Pleckstrin homology domain-containing family G member 6 (Homo sapiens), Q3KR16 (parent)
chain: MKAFGPPHEGPLQGLVASRIETYGGRHRASAQSTAGRLYPRGYPVLDPSRRRLQQYVPFARGSGQARGLSPMRLRDPEPEKRHGGHVGAGLLHSPKLKELTKAHELEVRLHTFSMFGMPRLPPEDRRHWEIGEGGDSGLTIEKSWRELVPGHKEMSQELCHQQEALWELLTTELIYVRKLKIMTDLLAAGLLNLQRVGLLMEVSAETLFGNVPSLIRTHRSFWDEVLGPTLEETRASGQPLDPIGLQSGFLTFGQRFHPYVQYCLRVKQTMAYAREQQETNPLFHAFVQWCEKHKRSGRQMLCDLLIKPHQRITKYPLLLHAVLKRSPEARAQEALNAMIEAVESFLRHINGQVRQGEEQESLAAAAQRIGPYEVLEPPSDEVEKNLRPFSTLDLTSPMLGVASEHTRQLLLEGPVRVKEGREGKLDVYLFLFSDVLLVTKPQRKADKAKVIRPPLMLEKLVCQPLRDPNSFLLIHLTEFQCVSSALLVHCPSPTDRAQWLEKTQQAQAALQKLKAEEYVQQKRELLTLYRDQDRESPSTRPSTPSLEGSQSSAEGRTPEFSTIIPHLVVTEDTDEDAPLVPDDTSDSGYGTLIPGTPTGSRSPLSRLRQRALRRDPRLTFSTLELRDIPLRPHPPDPQAPQRRSAPELPEGILKGGSLPQEDPPTWSEEEDGASERGNVVVETLHRARLRGQLPSSPTHADSAGESPWESSGEEEEEGPLFLKAGHTSLRPMRAEDMLREIREELASQRIEGAEEPRDSRPRKLTRAQLQRMRGPHIIQLDTPLSASEV
partner: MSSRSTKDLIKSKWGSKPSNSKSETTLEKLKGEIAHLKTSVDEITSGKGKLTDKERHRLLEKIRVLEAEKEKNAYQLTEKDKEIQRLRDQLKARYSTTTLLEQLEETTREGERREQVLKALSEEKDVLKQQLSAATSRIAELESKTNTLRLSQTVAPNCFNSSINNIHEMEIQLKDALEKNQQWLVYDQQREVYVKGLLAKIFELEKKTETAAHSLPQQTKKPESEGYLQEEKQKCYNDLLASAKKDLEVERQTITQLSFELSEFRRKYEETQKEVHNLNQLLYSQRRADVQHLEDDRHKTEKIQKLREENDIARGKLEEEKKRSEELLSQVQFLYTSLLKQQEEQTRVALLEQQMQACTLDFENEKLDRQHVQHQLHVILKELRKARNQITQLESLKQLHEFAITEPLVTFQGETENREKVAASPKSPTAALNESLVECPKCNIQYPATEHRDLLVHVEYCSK
B3: BTB/POZ domain-containing protein KCTD6 (Homo sapiens), Q8NC69 (parent)
chain: MDNGDWGYMMTDPVTLNVGGHLYTTSLTTLTRYPDSMLGAMFGGDFPTARDPQGNYFIDRDGPLFRYVLNFLRTSELTLPLDFKEFDLLRKEADFYQIEPLIQCLNDPKPLYPMDTFEEVVELSSTRKLSKYSNPVAVIITQLTITTKVHSLLEGISNYFTKWNKHMMDTRDCQVSFTFGPCDYHQEVSLRVHLMEYITKQGFTIRNTRVHHMSERANENTVEHNWTFCRLARKTDD
B4: Probable splicing factor YJU2B (Homo sapiens), P13994 (parent)
chain: MGERKGVNKYYPPDFNPEKHGSLNRYHNSHPLRERARKLSQGILIIRFEMPYNIWCDGCKNHIGMGVRYNAEKKKVGNYYTTPIYRFRMKCHLCVNYIEMQTDPANCDYVIVSGAQRKEERWDMADNEQVLTTEHEKKQKLETDAMFRLEHGEADRSTLKKALPTLSHIQEAQSAWKDDFALNSMLRRRFREKKKAIQEEEERDQALQAKASLTIPLVPETEDDRKLAALLKFHTLDSYEDKQKLKRTEIISRSWFPSAPGSASSSKVSGVLKKLAQSRRTALATSPITVGDLGIVRRRSRDVPESPQHAADTPKSGEPRVPEEAAQDRPMSPGDCPPETTETPKCSSPRGQEGSRQDKPLSPAGSSQEAADTPDTRHPCSLGSSLVADYSDSESE
B5: Protein FAM168A (Homo sapiens), Q92567 (parent)
chain: MNPVYSPVQPGAPYGNPKNMAYTGYPTAYPAAAPAYNPSLYPTNSPSYAPEFQFLHSAYATLLMKQAWPQNSSSCGTEGTFHLPVDTGTENRTYQASSAAFRYTAGTPYKVPPTQSNTAPPPYSPSPNPYQTAMYPIRSAYPQQNLYAQGAYYTQPVYAAQPHVIHHTTVVQPNSIPSAIYPAPVAAPRTNGVAMGMVAGTTMAMSAGTLLTTPQHTAIGAHPVSMPTYRAQGTPAYSYVPPHW
B6: Transcription factor 12 (Homo sapiens), Q99081 (parent)
chain: MNPQQQRMAAIGTDKELSDLLDFSAMFSPPVNSGKTRPTTLGSSQFSGSGIDERGGTTSWGTSGQPSPSYDSSRGFTDSPHYSDHLNDSRLGAHEGLSPTPFMNSNLMGKTSERGSFSLYSRDTGLPGCQSSLLRQDLGLGSPAQLSSSGKPGTAYYSFSATSSRRRPLHDSAALDPLQAKKVRKVPPGLPSSVYAPSPNSDDFNRESPSYPSPKPPTSMFASTFFMQDGTHNSSDLWSSSNGMSQPGFGGILGTSTSHMSQSSSYGNLHSHDRLSYPPHSVSPTDINTSLPPMSSFHRGSTSSSPYVAASHTPPINGSDSILGTRGNAAGSSQTGDALGKALASIYSPDHTSSSFPSNPSTPVGSPSPLTGTSQWPRPGGQAPSSPSYENSLHSLQSRMEDRLDRLDDAIHVLRNHAVGPSTSLPAGHSDIHSLLGPSHNAPIGSLNSNYGGSSLVASSRSASMVGTHREDSVSLNGNHSVLSSTVTTSSTDLNHKTQENYRGGLQSQSGTVVTTEIKTENKEKDENLHEPPSSDDMKSDDESSQKDIKVSSRGRTSSTNEDEDLNPEQKIEREKERRMANNARERLRVRDINEAFKELGRMCQLHLKSEKPQTKLLILHQAVAVILSLEQQVRERNLNPKAACLKRREEEKVSAVSAEPPTTLPGTHPGLSETTNPMGHM
B7: "N-acyl-aromatic-L-amino acid amidohydrolase (carboxylate-forming)" (Homo sapiens), Q96HD9 (parent)
chain: MCSLPVPREPLRRVAVTGGTHGNEMSGVYLARHWLHAPAELQRASFSAVPVLANPAATSGCRRYVDHDLNRTFTSSFLNSRPTPDDPYEVTRARELNQLLGPKASGQAFDFVLDLHNTTANMGTCLIAKSSHEVFAMHLCRHLQLQYPELSCQVFLYQRSGEESYNLDSVAKNGLGLELGPQPQGVLRADIFSRMRTLVATVLDFIELFNQGTAFPAFEMEAYRPVGVVDFPRTEAGHLAGTVHPQLQDRDFQPLQPGAPIFQMFSGEDLLYEGESTVYPVFINEAAYYEKGVAFVQTEKFTFTVPAMPALTPAPSPAS
partner: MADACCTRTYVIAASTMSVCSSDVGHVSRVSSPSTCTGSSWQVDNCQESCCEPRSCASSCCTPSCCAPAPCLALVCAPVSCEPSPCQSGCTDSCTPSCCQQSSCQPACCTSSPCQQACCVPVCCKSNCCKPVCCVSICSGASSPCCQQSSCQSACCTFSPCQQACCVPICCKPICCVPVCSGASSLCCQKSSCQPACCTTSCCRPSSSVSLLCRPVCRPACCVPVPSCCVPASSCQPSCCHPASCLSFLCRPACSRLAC
B8: Protein SSX3 (Homo sapiens), Q99909 (parent)
chain: MNGDDTFARRPTVGAQIPEKIQKAFDDIAKYFSKEEWEKMKVSEKIVYVYMKRKYEAMTKLGFKAILPSFMRNKRVTDFQGNDFDNDPNRGNQVQRPQMTFGRLQGIFPKIMPKKPAEEGNVSKEVPEASGPQNDGKQLCPPGKPTTSEKINMISGPKRGEHAWTHRLRERKQLVIYEEISDPEEDDE
partner: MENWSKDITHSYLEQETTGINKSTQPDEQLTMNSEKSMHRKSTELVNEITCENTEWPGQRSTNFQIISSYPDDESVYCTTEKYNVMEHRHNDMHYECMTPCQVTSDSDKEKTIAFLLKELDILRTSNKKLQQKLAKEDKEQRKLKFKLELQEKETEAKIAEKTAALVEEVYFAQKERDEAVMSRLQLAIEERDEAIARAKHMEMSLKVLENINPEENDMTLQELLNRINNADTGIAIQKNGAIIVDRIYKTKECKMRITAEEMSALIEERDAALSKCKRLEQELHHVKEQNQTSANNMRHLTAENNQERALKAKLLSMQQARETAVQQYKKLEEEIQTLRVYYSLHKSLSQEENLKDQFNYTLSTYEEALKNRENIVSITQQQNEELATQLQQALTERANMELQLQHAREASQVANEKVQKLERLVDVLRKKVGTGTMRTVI
B9: Myogenin (Homo sapiens), P15173 (parent)
chain: MELYETSPYFYQEPRFYDGENYLPVHLQGFEPPGYERTELTLSPEAPGPLEDKGLGTPEHCPGQCLPWACKVCKRKSVSVDRRRAATLREKRRLKKVNEAFEALKRSTLLNPNQRLPKVEILRSAIQYIERLQALLSSLNQEERDLRYRGGGGPQPGVPSECSSHSASCSPEWGSALEFSANPGDHLLTADPTDAHNLHSLTSIVDSITVEDVSVAFPDETMPN

The variants in the first test derive from B1. The note with it: with dce1_human GAD1, Q99259.
As to I37V, the “effect of a mutation on the interaction” value is “with no effect”.

Take T42S: the “effect of a mutation on the interaction” value is “with no effect”.

In another test the parent is B2. The note with it: with cep55_human CEP55, Q53EZ4.
As to P542S, the “effect of a mutation on the interaction” value is on record as “with no effect”.

With R627W, the “effect of a mutation on the interaction” value is listed as “with no effect”.

Regarding R763Q, the “effect of a mutation on the interaction” value is reported as “with no effect”.

Variants of B3 are the subject of the next test. The note with it: with prp31_human PRPF31, Q8WWY3.
Sequence of prp31_human PRPF31, Q8WWY3 (Q8WWY3 whole entry): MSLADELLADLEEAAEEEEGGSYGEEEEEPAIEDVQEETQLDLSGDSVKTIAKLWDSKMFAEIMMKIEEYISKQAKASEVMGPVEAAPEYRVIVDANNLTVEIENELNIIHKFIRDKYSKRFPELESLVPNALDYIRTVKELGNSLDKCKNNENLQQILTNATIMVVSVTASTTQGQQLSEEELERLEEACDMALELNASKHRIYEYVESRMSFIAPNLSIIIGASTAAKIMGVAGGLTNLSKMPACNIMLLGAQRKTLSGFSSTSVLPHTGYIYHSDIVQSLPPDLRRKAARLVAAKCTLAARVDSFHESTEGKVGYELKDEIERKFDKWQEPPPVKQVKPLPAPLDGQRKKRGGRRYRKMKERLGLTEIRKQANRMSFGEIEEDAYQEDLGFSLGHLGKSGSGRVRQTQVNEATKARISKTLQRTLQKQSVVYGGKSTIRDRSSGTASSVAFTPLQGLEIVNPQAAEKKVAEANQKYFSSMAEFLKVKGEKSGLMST
On to N207S, for which the “effect of a mutation on the interaction” value is “with no effect”.

Variants of B3 are the subject of the next test. The note with it: with echp_human EHHADH.
With N207S, the “effect of a mutation on the interaction” value is given as “with no effect”.

The next test covers variants of B4. The note with it: with znf24_human ZNF24, P17028.
Sequence of znf24_human ZNF24, P17028 (P17028 whole entry): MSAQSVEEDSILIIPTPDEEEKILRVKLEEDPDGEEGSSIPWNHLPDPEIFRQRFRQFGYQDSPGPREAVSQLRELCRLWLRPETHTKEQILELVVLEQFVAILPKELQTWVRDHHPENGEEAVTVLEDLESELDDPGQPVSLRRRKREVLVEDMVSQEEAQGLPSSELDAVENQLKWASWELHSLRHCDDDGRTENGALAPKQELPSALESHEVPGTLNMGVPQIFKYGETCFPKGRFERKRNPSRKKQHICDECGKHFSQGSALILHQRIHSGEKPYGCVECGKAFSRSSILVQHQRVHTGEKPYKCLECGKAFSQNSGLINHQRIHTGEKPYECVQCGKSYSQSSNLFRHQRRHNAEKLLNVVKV
Consider S22C, for which the “effect of a mutation on the interaction” value was “with no effect”.

In another test the parent is B4. The note with it: with traf2_human TRAF2, Q12933.
Sequence of traf2_human TRAF2, Q12933 (Q12933 whole entry): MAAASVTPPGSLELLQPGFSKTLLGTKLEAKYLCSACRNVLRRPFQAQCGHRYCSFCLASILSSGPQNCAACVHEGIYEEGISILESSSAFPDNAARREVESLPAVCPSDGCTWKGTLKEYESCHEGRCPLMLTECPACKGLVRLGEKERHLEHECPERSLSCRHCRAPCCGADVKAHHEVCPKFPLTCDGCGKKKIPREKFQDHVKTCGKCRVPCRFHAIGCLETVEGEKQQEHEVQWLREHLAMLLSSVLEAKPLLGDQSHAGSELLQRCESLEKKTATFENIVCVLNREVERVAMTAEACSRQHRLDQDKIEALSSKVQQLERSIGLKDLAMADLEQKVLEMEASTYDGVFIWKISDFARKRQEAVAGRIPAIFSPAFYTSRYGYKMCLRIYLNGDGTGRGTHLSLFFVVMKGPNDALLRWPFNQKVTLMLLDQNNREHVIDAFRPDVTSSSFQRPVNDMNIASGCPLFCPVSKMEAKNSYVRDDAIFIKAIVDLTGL
For the variant S22C, the “effect of a mutation on the interaction” value is given as “with no effect”.

In another test the parent is B5. The note with it: with ru1c_human SNRPC.
Consider P122R, for which the “effect of a mutation on the interaction” value was “with no effect”.

The variants in the next test derive from B5. The note with it: with ubs3b_human UBASH3B.
P122R: the “effect of a mutation on the interaction” value is “disrupting interaction strength”.

The variants in a further test derive from B5. The note with it: with ub2v1_human UBE2V1, Q13404.
Sequence of ub2v1_human UBE2V1, Q13404 (Q13404 whole entry): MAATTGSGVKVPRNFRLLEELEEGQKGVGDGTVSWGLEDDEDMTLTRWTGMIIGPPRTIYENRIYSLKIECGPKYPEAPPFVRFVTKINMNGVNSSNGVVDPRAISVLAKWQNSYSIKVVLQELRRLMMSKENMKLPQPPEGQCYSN
With P122R, the “effect of a mutation on the interaction” value is listed as “disrupting interaction strength”.

The variants in the next test derive from B6. The note with it: with psa1_human PSMA1, P25786.
Sequence of psa1_human PSMA1, P25786 (P25786 whole entry): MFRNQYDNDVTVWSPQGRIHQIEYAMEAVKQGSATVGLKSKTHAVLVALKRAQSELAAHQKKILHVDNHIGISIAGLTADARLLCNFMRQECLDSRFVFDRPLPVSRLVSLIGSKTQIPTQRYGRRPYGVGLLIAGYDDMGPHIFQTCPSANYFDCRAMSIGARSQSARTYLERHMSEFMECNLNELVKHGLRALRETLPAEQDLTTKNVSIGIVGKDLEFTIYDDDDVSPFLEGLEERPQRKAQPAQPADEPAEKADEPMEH
Turning to A458V, the “effect of a mutation on the interaction” value is “with no effect”.

Regarding I11M, the “effect of a mutation on the interaction” value is listed as “with no effect”.

N479S: the “effect of a mutation on the interaction” value is on record as “with no effect”.

The variants in the next test derive from B6. The note with it: with cdn2c_human CDKN2C.
Regarding A458V, the “effect of a mutation on the interaction” value is “with no effect”.

Take I11M: the “effect of a mutation on the interaction” value is reported as “with no effect”.

Regarding N479S, the “effect of a mutation on the interaction” value was “with no effect”.

In another test the parent is B7. The note with it: with kr108_human KRTAP10-8, P60410.
As for R8Q, the “effect of a mutation on the interaction” value is “with no effect”.

In a further test the parent is B8. The note with it: with mipo1_human MIPOL1, Q8TD10.
In the case of R159S, the “effect of a mutation on the interaction” value is recorded as “with no effect”.

T77A: the “effect of a mutation on the interaction” value is on record as “with no effect”.

In another test the parent is B9. The note with it: with if4e2_human EIF4E2, O60573.
Sequence of if4e2_human EIF4E2, O60573 (O60573 whole entry): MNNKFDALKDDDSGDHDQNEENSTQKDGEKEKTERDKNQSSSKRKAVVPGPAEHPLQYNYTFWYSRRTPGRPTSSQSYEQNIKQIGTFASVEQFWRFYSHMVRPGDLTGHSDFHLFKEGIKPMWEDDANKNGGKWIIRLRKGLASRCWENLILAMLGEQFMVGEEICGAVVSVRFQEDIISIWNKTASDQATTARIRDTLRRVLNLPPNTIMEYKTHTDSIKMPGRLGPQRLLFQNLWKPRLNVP
On to A181T, for which the “effect of a mutation on the interaction” value is “disrupting interaction strength”.

In another test the parent is B9. The note with it: with cc28a_human CCDC28A.
Regarding A181T, the “effect of a mutation on the interaction” value was “disrupting interaction strength”.

A further test covers variants of B9. The note with it: with mlh1_human MLH1, P40692.
Sequence of mlh1_human MLH1, P40692 (P40692 whole entry): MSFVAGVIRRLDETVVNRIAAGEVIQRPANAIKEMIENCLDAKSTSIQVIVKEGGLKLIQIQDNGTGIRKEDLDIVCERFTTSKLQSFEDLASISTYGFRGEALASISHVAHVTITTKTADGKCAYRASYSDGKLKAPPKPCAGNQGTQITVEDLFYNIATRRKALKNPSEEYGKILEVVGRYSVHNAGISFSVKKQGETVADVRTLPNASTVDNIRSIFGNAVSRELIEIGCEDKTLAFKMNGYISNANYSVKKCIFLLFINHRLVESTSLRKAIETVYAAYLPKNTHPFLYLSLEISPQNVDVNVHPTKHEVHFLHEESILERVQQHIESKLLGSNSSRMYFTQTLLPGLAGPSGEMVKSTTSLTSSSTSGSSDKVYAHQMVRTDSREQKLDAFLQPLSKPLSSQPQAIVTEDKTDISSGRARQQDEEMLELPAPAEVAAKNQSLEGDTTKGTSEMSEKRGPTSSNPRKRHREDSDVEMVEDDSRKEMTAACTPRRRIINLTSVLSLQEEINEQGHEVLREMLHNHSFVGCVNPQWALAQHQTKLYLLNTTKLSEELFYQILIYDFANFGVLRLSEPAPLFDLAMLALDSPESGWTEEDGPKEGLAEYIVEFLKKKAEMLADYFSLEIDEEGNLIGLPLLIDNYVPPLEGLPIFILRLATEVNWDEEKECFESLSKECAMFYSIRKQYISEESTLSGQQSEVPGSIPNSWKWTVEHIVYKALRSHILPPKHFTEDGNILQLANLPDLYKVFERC
Consider A181T, for which the “effect of a mutation on the interaction” value is reported as “disrupting interaction strength”.
